From patent US20060257880A1, “Gastric and prostate cancer associated antigens” (THE NOTTINGHAM TRENT UNIVERSITY, priority 2003, published 2006) come the findings set out here.

Assay [1] relates to prostate cancer patients' sera. As to the kind of experiment: Modified SEREX immunoscreening of T21 clone against prostate cancer patients' sera. Type of assay: binding, human. More on the design: key to Sera reactivity: +: sera reactivity observed; −: no sera reactivity observed. The text has this:
(§1) The SEREX approach allows an unbiased search for an antibody response and the direct molecular definition of immunogenic tumour proteins based on their reactivity with allogeneic patient sera. In this approach, a prokaryotically expressed cDNA library constructed from normal human testes was immunoscreened with absorbed and diluted patients' sera for the detection of tumour antigens that have elicited a high-titer immunoglobulin (Ig) G humoral response. Such a humoral response implies T-cell recognition of the detected antigens by helper T cells. […] The SEREX approach can then be modified and used to determine the reactivity of identified antigens with panels of human sera including prostate cancer patient sera and normal donor sera.
(§2) The reactivity of promising positive clones against patient and normal donor serum was determined by immunoscreening the clones against and allogeneic panel of 10 prostate cancer patients' sera and 10 healthy donor patients' sera. The methodology used was the same as the SEREX methodology (described above) with the following modifications: The positive clone (T21) and a negative clone (blue phage) were plated out on a small LB agar plate at a ratio of 1:2 to give a titre of approximately 600 pfu/plate. The steps for detection of false positives, subcloning and retesting were not necessary. Following expression overnight, plaque expression and transferral of the plaques to nitrocellulose membranes, the nitrocellulose membranes were incubated with the individual serum and colour developed as described previously. The results would then be recorded simply as being positive (plaques visible) or negative (no plaques visible).
(§3) Immune recognition of identified gene products in prostate cancer patients. To assess the frequency of antibody responses against T21 in sera from normal individuals and prostate cancer patients, 10 prostate cancer patient sera and 10 normal adult sera were screened using a modified immunoscreening procedure.

Another assay deals with normal individual sera. As to the kind of experiment: Modified SEREX immunoscreening of T21 clone against normal individual sera. Type of assay: binding, human. More on the design: key to Sera reactivity: +: sera reactivity observed; −: no sera reactivity observed.
From the text: as §1, §2, §3

B1: T21: SEREX-identified cancer-testis antigen clone; cDNA encodes a putative 535 amino acid protein (SEQ. ID. 3) (protein, listed as Homo sapiens)
chain: MSEAQSKNEIIAQEFLIKEAECRNADIELEHHRSQAEQNEFLSRELIEKERDLERSRTVIAKFQNKLKELVEENKQLEEGMKEILQAIKEMQKDPDVKGGETSLIIPSLERLVNAIESKNAEGIFDASLHLKAQVDQLTGRNEELRQELRESRKEAINYSQQLAKANLKIDHLEKETSLLRQSEGSNVVFKGIDLPDGIAPSSASIINSQNEYLIHLLQELENKEKKLKNLEDSLEDYNRKFAVIRHQQSLLYKEYLSEKETWKTESKTIKEEKRKLEDQVQQDAIKVKEYNNLLNALQMDSDEMKKILAENSRKITVLQVNEKSLIRQYTTLVELERQLRKENEKQKNELLSMEAEVCEKIGCLQRFKEMAIFKIAALQKVVDNSVSLSELELANKQYNELTAKYRDILQKDNMLVQRTSNLEHLECENISLKEQVESINKELEITKEKLHTIEQAWEQETKLGNESSMDKAKKSITNSDIVSISKKITMLEMKELNERQRAEHCQKMYEHLRTSLKQMEERNFELETKFAEV
For the molecule B1, the figures for the “Antibody response against T21 in sera (in words)” value (in assay [1] (10 prostate cancer patient sera); in the assay with normal individual sera (10 normal adult sera)) were “reacted exclusively with allogeneic sera obtained from prostate cancer patients” and “not with sera from healthy individuals”, respectively. The “Sera reactivity, reactive sera / sera tested” value is recorded as 4/10 in assay [1] (panel of 10 prostate cancer patients sera) and 0/10 with normal individual sera (panel of 10 normal donor sera). Besides, the Sera reactivity entry in assay [1] (prostate cancer patient serum 27) is recorded as “+”; in assay [1] (prostate cancer patient serum 29), “−”; in assay [1] (prostate cancer patient serum 32), “−”; in assay [1] (prostate cancer patient serum 33) it was “−”; in assay [1] (prostate cancer patient serum 34), “+”; in assay [1] (prostate cancer patient serum 36), “−”. Moreover, the Sera reactivity entry in assay [1] (prostate cancer patient serum 37) is “−”; in assay [1] (prostate cancer patient serum 38) it was “+”; in assay [1] (prostate cancer patient serum 39) it was “+”; in assay [1] (prostate cancer patient serum 48), “−”; in the assay with normal individual sera (normal individual serum 1), “−”; with normal individual sera (normal individual serum 2), “−”. Further, the Sera reactivity result in the assay with normal individual sera (normal individual serum 3), in the assay on normal individual sera (normal individual serum 5), with normal individual sera (normal individual serum 12), with normal individual sera (normal individual serum 13), with normal individual sera (normal individual serum 14) and with normal individual sera (normal individual serum 19) was “−” each time. For the same molecule, the Sera reactivity result in the assay on normal individual sera (normal individual serum 20) and with normal individual sera (normal individual serum 21) was “−” in each case.
